Key:
TAMRA-cs094B = assay: FP titration and kinetics, hinge vs TAMRA-cs094B; type: binding; conditions: Effector TAMRA-cs094B; method FP
Experimental: (§1) All FP measurements were performed at 25° C. in 96-well plates (Corning 3686) using a Synergy Neo2™ plate reader and a 530/590 nm filter cube. The buffer for all FP measurements was 20 mM Tris-HCl, 100 mM NaCl, 0.05% v/v TWEEN20 at pH 8. Titrations were carried out in 96-well format, with 4 replicates per plate and 24 data points per titration (23 steps of two-fold serial dilution of hinges in the presence of TAMRA-labeled peptide at a constant concentration between 0.1 nM and 1 nM) with a final sample volume of 80 μl per well. Titration plates were incubated overnight at room temperature before measuring to ensure complete equilibration. The polarization signal S (as calculated by the Neo2™ software) was fitted to the equation
(§2) where fAB is the fraction of peptide that is bound, Atot is the absolute hinge concentration, Btot is the absolute peptide concentration, S0 is the baseline polarization of free peptide, and S1 is the change in polarization upon complex formation.
(§3) Fitting was performed using the scipy.optimize.curve_fit python function (53). Uncertainties for KD values are standard deviation errors calculated from the covariance matrix of the fits. In cases where the fitted KD was lower than the concentration of the labeled peptide Btot, we report the KD as KD<Btot. […]

cs221B = assay: FRET titration and kinetics, labeled extended hinge vs peptide cs221B; type: binding; conditions: FRET titration, 2 nM labeled hinge, peptide cs221B
Experimental: (§4) AlexaFluor™ 555 C2 maleimide (donor) and AlexaFluor™ 647 C2 maleimide (acceptor) were purchased from ThermoFisherScientific. Stock solutions at −5 mM were prepared by dissolving 1 mg of each dye in 200 μl DMSO. Hinge variants containing two cysteines were expressed and purified as described above with the modification that 0.5 mM TCEP was used during lysis, IMAC and SEC, and that the buffer for initial SEC contained 20 mM sodium phosphate (PH 7.0) instead of Tris-HCl. After SEC, 500 μl hinge at a concentration of 50 μM was incubated with 500 μM of a single dye for controls or 250 μM each of two dyes. […]
(§5) The buffer for all FRET measurements was 20 mM Tris-HCl, 100 mM NaCl, 0.05% v/v TWEEN®20 at pH 8. Fluorescence spectra were recorded at room temperature using a FluoroMax™ spectrometer in a 1 cm×1 cm cuvette at a sample volume of 3 ml. FRET titrations and kinetics measurements were performed at 25° C. in 96-well plates (Corning 3686) using a Synergy Neo2™ plate reader. […]
(§6) Titrations were carried out in 96-well format, with 4 replicates per plate and 24 data points per titration (23 steps of two-fold serial dilution of effector (peptide or 3hb) in the presence of double-labeled hinge at a constant concentration of 2 nM) with a final sample volume of 80 μl per well. […] The raw fluorescence signal (donor emission upon acceptor excitation) was fitted to the equation […]

3hb05 = assay: FRET titration, labeled extended hinge vs 3hb05; type: binding
Experimental: as §4, §5, §6

cs201B = assay: FRET titration and kinetics, labeled extended hinge vs peptide cs201B; type: binding; conditions: FRET titration, 2 nM labeled hinge, peptide cs201B
Experimental: AlexaFluor™ 555 C2 maleimide (donor) and AlexaFluor™ 647 C2 maleimide (acceptor) were purchased from ThermoFisherScientific. Stock solutions at −5 mM were prepared by dissolving 1 mg of each dye in 200 μl DMSO. Hinge variants containing two cysteines were expressed and purified as described above with the modification that 0.5 mM TCEP was used during lysis, IMAC and SEC, and that the buffer for initial SEC contained 20 mM sodium phosphate (PH 7.0) instead of Tris-HCl. After SEC, 500 μl hinge at a concentration of 50 μM was incubated with 500 μM of a single dye for controls or 250 μM each of two dyes. After 2 h incubation at room temperature, samples were purified by SEC using a buffer containing 20 mM Tris-HCl and 100 mM NaCl at pH 8.
The buffer for all FRET measurements was 20 mM Tris-HCl, 100 mM NaCl, 0.05% v/v TWEEN®20 at pH 8. Fluorescence spectra were recorded at room temperature using a FluoroMax™ spectrometer in a 1 cm×1 cm cuvette at a sample volume of 3 ml. FRET titrations and kinetics measurements were performed at 25° C. in 96-well plates (Corning 3686) using a Synergy Neo2™ plate reader. Excitation wavelength was 520 nm and emission wavelength was 665 nm (except for donor-donor controls for which emission wavelength was 555 nm, see FIG. 13B right column).
Titrations were carried out in 96-well format, with 4 replicates per plate and 24 data points per titration (23 steps of two-fold serial dilution of effector (peptide or 3hb) in the presence of double-labeled hinge at a constant concentration of 2 nM) with a final sample volume of 80 μl per well. […] The raw fluorescence signal (donor emission upon acceptor excitation) was fitted to the equation
Fitting was performed using the scipy.optimize.curve_fit python function (53). Uncertainties for KD values are standard deviation errors calculated from the covariance matrix of the fits. […]
For FRET kinetics experiments a 2× hinge solution and 8 different 2× effector solutions at different concentrations were prepared separately. […] Fluorescence signals S at each concentration were fitted individually to the equation […]

TAMRA-cs074B = assay: Fluorescence polarization (FP) titration and kinetics, hinge vs TAMRA-cs074B; type: binding; conditions: Effector TAMRA-cs074B; method FP
Experimental: as §1, §2
Fitting was performed using the scipy.optimize.curve_fit python function (53). Uncertainties for KD values are standard deviation errors calculated from the covariance matrix of the fits. In cases where the fitted KD was lower than the concentration of the labeled peptide Btot, we report the KD as KD<Btot.
For FP kinetics experiments a 2× peptide solution and 8 different 2× hinge solutions at different concentrations were prepared separately. 40 μl of each hinge solution were mixed with 40 μl peptide solution using a multichannel pipet and the measurement was started immediately after mixing. Polarization signals S at each concentration were fitted individually to the equation
where S0 is the amplitude, S1 is the polarization at equilibrium, kapp is the apparent rate constant, t is the time after start of the measurement, and t0 is the dead time between mixing and start of the measurement. For each hinge-peptide pair, the apparent rate constants for 8 different concentrations are fitted to the equation
where koff and kon are observed off- and on rates and Atot is the absolute hinge concentration.

cs074B = assay: FRET titration and kinetics, labeled extended hinge vs peptide cs074B; type: binding; conditions: Effector cs074B; method FRET
Experimental: as §4, §5, §6

TAMRA-cs269B = assay: FP titration and kinetics, hinge vs TAMRA-cs269B; type: binding; conditions: Effector TAMRA-cs269B; method FP
Experimental: as §1, §2, §3

[1] = tested on: original peptides fused to superfolder green fluorescent protein (sfGFP); assay: SEC binding experiments with original peptides fused to sfGFP; conditions: FIG. 17C
Experimental: (§7) Individual hinge and sfGFP-fused peptides or 3hb were diluted in 20 mM Tris pH 8, 100 mM NaCl and mixed at approximately 1:1 concentrations. 0.5-1 mL of the resulting samples were injected onto a Superdex™ 200 Increase 10/300 GL columns and the absorbance at 230 nm was used as a readout for binding. For sfGFP-fused peptides, 473 nm was also used as readout. Mixtures were at a total concentration of 2. μM or higher.

three-helix bundles = assay: SEC binding experiments with three-helix bundles; conditions: FIG. 16A
Experimental: as §7

Chain of TAMRA-cs074B (as listed by the source): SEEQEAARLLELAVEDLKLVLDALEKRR
Chain of TAMRA-cs269B (as listed by the source): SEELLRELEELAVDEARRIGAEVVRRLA
Chain of cs221B (as listed by the source): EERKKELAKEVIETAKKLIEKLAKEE
Chain of cs201B (as listed by the source): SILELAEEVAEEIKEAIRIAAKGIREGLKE
Chain of 3hb05 (as listed by the source): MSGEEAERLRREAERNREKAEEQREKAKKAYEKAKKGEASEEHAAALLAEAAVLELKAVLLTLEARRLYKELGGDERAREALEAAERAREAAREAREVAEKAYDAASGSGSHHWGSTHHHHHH
Chain of TAMRA-cs094B (as listed by the source): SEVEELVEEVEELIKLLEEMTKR

B1: cs094: designed hinge protein, SEQ ID NO:5 (protein)
chain: MSGDEEERLRQEVEKAEKELEKLAKQSTDEEVRKMVREVAKQLRRLAEEAIRQKDDEALRQATEVVKMVQEAVKVAQKTTDQKVILLLLAVALVAIKVAQLAIRSDDTEALRLARIVIRAVQLLVKLVQKTTDPEVRRTALRVAELLAKLAKEAIERNDEEALREASEVVKEVQELVKEAEKSTDEEEIRELLQRAEERIREAQERIREGSGSHHWGSTHHHHHH
B1 was tested, and the kon (TAMRA-cs094B) was 9400 M⁻¹ s⁻¹.

B2: cs074F: extended hinge cs074 for FRET labeling, SEQ ID NO:29 (protein)
chain: DEEVQEAVERAEELREEAEELIKKARKTGDPELLRKALEALECAVRAVEEAIKRNPDNDEAVETAVRLARELKKVAEELQERAKKTGDPELLKLALRALKVAVRAVKLAIKSNPDNEEAVKTAVRLARELLKVAEELKERAEKTGDPRLLLLAAEAIAWAIEAVFLAAKASENTEGALEAARAAVKLAEVAKRIAKLLQRDAKKEGDPELLKLALRALELAVRAVELAIKENPDNDEAVETAVRLARELKKVAEELQERAKKTGDPELLKLALRALEVAVRAVELAIKSNPDNEEAVETAKRLAEELRKVAELLEERACETGDPELQELAKRAKEVADRARELAKKSNPNNGSHHHHHH
With B2 the “off-target binding compared to the on-target interaction for cs074B” value (cs221B) was “two orders of magnitude weaker”, the “affinity compared with the original peptide cs074B” value (3hb05) was “similar” and the “off-target binding compared to the on-target interaction for cs074B” value (cs201B) was “three orders of magnitude weaker”. For the same molecule, the kon (TAMRA-cs074B) was 100000 M⁻¹ s⁻¹ and the kon (cs074B) was 170000 M⁻¹ s⁻¹.

B3: cs269: designed hinge protein, SEQ ID NO:14 (protein)
chain: MSGDEERVRELAERASREAERAVRSGSEESLEEALRNVEELIRKSDSEEARVRVAEAAVRAAAEAAARSGTVEAAAVAVIFTARVLQIVSSSEEAVVRVLAAAAAAAARVAVELGTEEALETALRFVELLVRLADSDEARQRVLRSASESARRSAEESGSERAREVAERFRERIERNQGSGSHHWGSTHHHHHH
In the case of B3, the kon (TAMRA-cs269B) is reported as 2500 M⁻¹ s⁻¹ and the “SEC binding experiment with sfGFP-fused original peptide” value [1] is reported as “higher-order peaks”.

B4: cs074: de novo designed two-state hinge protein, SEQ ID NO:4 (protein)
chain: MSGDEEVQEAVERAEELREEAEELIKKARKTGDPELLRKALEALKEAVRAVKEAIKRNPDNEEAVKTAVRLARELLKVAEELKERAEKTGDPRLLLLAAEAIAWAIEAVFLAAKASENTEGALEAARAAVKLAEVAKRIAKLLQRDAKKEGDPELLKLALRALELAVRAVELAIKENPDNEEAVETAKRLAEELRKVAELLEERAKETGDPELQELAKRAKEVADRARELAKKSNPNNGSGSHHWGSTHHHHHH
For B4, the “SEC binding to three-helix bundles” value (three-helix bundles) was “clear binding” and the kon (TAMRA-cs074B) was 64000 M⁻¹ s⁻¹.
